B1: NP_009172.2 (parent)
chain: LPALFTDLYSQEITAEEAREALP
B2: DUSP5 (parent)
chain: YSEYPECCVDVKPISQEKIESERA

Variants of: B1
Experiment: protein stability index of a GFP-peptide fusion (GPS, HEK-293T) (PSI 1-6); higher = more stable
Conditions: c terminus: native

Variant | protein stability index
LPADFTDLYSQEITAEEAREALP | 4.87
LPACFTDLYSQEITAEEAREALP | 2.64
LPAWFTDLYSQEITAEEAREALP | 3.98
LPAPFTDLYSQEITAEEAREALP | 4.94
LPAHFTDLYSQEITAEEAREALP | 3.54
LPATFTDLYSQEITAEEAREALP | 2.27
LPAVFTDLYSQEITAEEAREALP | 4.59
LPAKFTDLYSQEITAEEAREALP | 2.77
LPAQFTDLYSQEITAEEAREALP | 3.62
LPAEFTDLYSQEITAEEAREALP | 5.24
LPAAFTDLYSQEITAEEAREALP | 3.64
LPARFTDLYSQEITAEEAREALP | 2.21
LPANFTDLYSQEITAEEAREALP | 2.76
LPAYFTDLYSQEITAEEAREALP | 3.47
LPAFFTDLYSQEITAEEAREALP | 2.99
LPASFTDLYSQEITAEEAREALP | 2.55
LPAMFTDLYSQEITAEEAREALP | 3.19
LPAIFTDLYSQEITAEEAREALP | 4.64
LPAGFTDLYSQEITAEEAREALP | 2.69
LPALFKDLYSQEITAEEAREALP | 3.32
LPALFCDLYSQEITAEEAREALP | 3.02
LPALFLDLYSQEITAEEAREALP | 3.54
LPALFGDLYSQEITAEEAREALP | 4.09
LPALFIDLYSQEITAEEAREALP | 2.7
LPALFDDLYSQEITAEEAREALP | 5.37
LPALFEDLYSQEITAEEAREALP | 3.68

Variant | protein stability index
LPALFHDLYSQEITAEEAREALP | 4.28
LPALFFDLYSQEITAEEAREALP | 4.22
LPALFADLYSQEITAEEAREALP | 2.34
LPMLFTDLYSQEITAEEAREALP | 2.47
LPELFTDLYSQEITAEEAREALP | 3.66
LPDLFTDLYSQEITAEEAREALP | 4.1
LPHLFTDLYSQEITAEEAREALP | 2.81
LPRLFTDLYSQEITAEEAREALP | 2.43
LPSLFTDLYSQEITAEEAREALP | 2.74
LPCLFTDLYSQEITAEEAREALP | 2.64
LPLLFTDLYSQEITAEEAREALP | 2.56
LPKLFTDLYSQEITAEEAREALP | 2.1
LPILFTDLYSQEITAEEAREALP | 2.43
LPVLFTDLYSQEITAEEAREALP | 2.49
LPPLFTDLYSQEITAEEAREALP | 2.62
LPWLFTDLYSQEITAEEAREALP | 2.42
LPYLFTDLYSQEITAEEAREALP | 2.62
LPNLFTDLYSQEITAEEAREALP | 2.96
LPFLFTDLYSQEITAEEAREALP | 2.76
LPGLFTDLYSQEITAEEAREALP | 2.68
LPQLFTDLYSQEITAEEAREALP | 2.22
LPTLFTDLYSQEITAEEAREALP | 2.56
LCALFTDLYSQEITAEEAREALP | 2.64
LAALFTDLYSQEITAEEAREALP | 2.69
LLALFTDLYSQEITAEEAREALP | 2.48
LQALFTDLYSQEITAEEAREALP | 2.69

Variant | protein stability index
LDALFTDLYSQEITAEEAREALP | 3.64
LVALFTDLYSQEITAEEAREALP | 2.46
LRALFTDLYSQEITAEEAREALP | 2.28
LGALFTDLYSQEITAEEAREALP | 3.03
LWALFTDLYSQEITAEEAREALP | 2.66
LTALFTDLYSQEITAEEAREALP | 2.51
LEALFTDLYSQEITAEEAREALP | 3.51
LSALFTDLYSQEITAEEAREALP | 2.71
LNALFTDLYSQEITAEEAREALP | 2.59
LHALFTDLYSQEITAEEAREALP | 2.52
LFALFTDLYSQEITAEEAREALP | 2.54
LKALFTDLYSQEITAEEAREALP | 2.5
LYALFTDLYSQEITAEEAREALP | 2.85
LMALFTDLYSQEITAEEAREALP | 2.79
LIALFTDLYSQEITAEEAREALP | 2.37
LPALRTDLYSQEITAEEAREALP | 5.42
LPALYTDLYSQEITAEEAREALP | 3.72
LPALCTDLYSQEITAEEAREALP | 5.41
LPALATDLYSQEITAEEAREALP | 5.41
LPALWTDLYSQEITAEEAREALP | 2.25
LPALITDLYSQEITAEEAREALP | 5.08
LPALLTDLYSQEITAEEAREALP | 5.16
LPALETDLYSQEITAEEAREALP | 5.38
LPALGTDLYSQEITAEEAREALP | 5.28
LPALSTDLYSQEITAEEAREALP | 5.37
LPALNTDLYSQEITAEEAREALP | 5.52

Variant | protein stability index
LPALMTDLYSQEITAEEAREALP | 5.24
LPALPTDLYSQEITAEEAREALP | 5.3
LPALKTDLYSQEITAEEAREALP | 5.25
LPALTTDLYSQEITAEEAREALP | 5.25
LPALDTDLYSQEITAEEAREALP | 5.58
LPALQTDLYSQEITAEEAREALP | 5.24
LPALVTDLYSQEITAEEAREALP | 5.07
PPALFTDLYSQEITAEEAREALP | 2.49
TPALFTDLYSQEITAEEAREALP | 2.4
FPALFTDLYSQEITAEEAREALP | 2.59
CPALFTDLYSQEITAEEAREALP | 2.5
IPALFTDLYSQEITAEEAREALP | 2.63
YPALFTDLYSQEITAEEAREALP | 2.5
HPALFTDLYSQEITAEEAREALP | 2.6
MPALFTDLYSQEITAEEAREALP | 2.91
VPALFTDLYSQEITAEEAREALP | 2.59
RPALFTDLYSQEITAEEAREALP | 2.22
KPALFTDLYSQEITAEEAREALP | 1.72
GPALFTDLYSQEITAEEAREALP | 2.77
QPALFTDLYSQEITAEEAREALP | 2.5
SPALFTDLYSQEITAEEAREALP | 2.32
APALFTDLYSQEITAEEAREALP | 2.95
EPALFTDLYSQEITAEEAREALP | 2.96
WPALFTDLYSQEITAEEAREALP | 2.68
DPALFTDLYSQEITAEEAREALP | 3.9
NPALFTDLYSQEITAEEAREALP | 2.86

Variants of: B2
Experiment: as above
Conditions: c terminus: a fixed tail appended

Variant | protein stability index
YSEYPECCVDVKPISQEKIESESA | 4.38
YSEYPECCVDVKPISQEKIESEDA | 4.41
YSEYPECCVDVKPISQEKIESEYA | 3.71
YSEYPECCVDVKPISQEKIESEMA | 3.91
YSEYPECCVDVKPISQEKIESEQA | 4.34
YSEYPECCVDVKPISQEKIESEIA | 4.24
YSEYPECCVDVKPISQEKIESEEA | 4.39
YSEYPECCVDVKPISQEKIESEPA | 4.55
YSEYPECCVDVKPISQEKIESETA | 4.44
YSEYPECCVDVKPISQEKIESENA | 4.34
YSEYPECCVDVKPISQEKIESECA | 4.98
YSEYPECCVDVKPISQEKIESEWA | 3.41
YSEYPECCVDVKPISQEKIESEGA | 4.42
YSEYPECCVDVKPISQEKIESELA | 4.18
YSEYPECCVDVKPISQEKIESEKA | 4.65
YSEYPECCVDVKPISQEKIESEFA | 3.73
YSEYPECCVDVKPISQEKIESEVA | 3.88
YSEYPECCVDVKPISQEKIESEAA | 4.23
YSEYPECCVDVKPISQEKIESEHA | 4.52
YSEYPECCVDVKPISQEKIESERN | 4.1
YSEYPECCVDVKPISQEKIESERY | 3
YSEYPECCVDVKPISQEKIESERH | 3.73

Variant | protein stability index
YSEYPECCVDVKPISQEKIESERQ | 4.18
YSEYPECCVDVKPISQEKIESERD | 4.45
YSEYPECCVDVKPISQEKIESERK | 3.82
YSEYPECCVDVKPISQEKIESERW | 3.44
YSEYPECCVDVKPISQEKIESERP | 3.88
YSEYPECCVDVKPISQEKIESERE | 4.9
YSEYPECCVDVKPISQEKIESERI | 4.16
YSEYPECCVDVKPISQEKIESERL | 4.26
YSEYPECCVDVKPISQEKIESERG | 3.82
YSEYPECCVDVKPISQEKIESERV | 3.89
YSEYPECCVDVKPISQEKIESERF | 2.43
YSEYPECCVDVKPISQEKIEPERA | 4.29
YSEYPECCVDVKPISQEKIELERA | 3.79
YSEYPECCVDVKPISQEKIEFERA | 4.11
YSEYPECCVDVKPISQEKIEEERA | 4.71
YSEYPECCVDVKPISQEKIENERA | 3.73
YSEYPECCVDVKPISQEKIEHERA | 4.58
YSEYPECCVDVKPISQEKIERERA | 3.22
YSEYPECCVDVKPISQEKIEWERA | 3.61
YSEYPECCVDVKPISQEKIEDERA | 3.47
YSEYPECCVDVKPISQEKIEMERA | 3.72
YSEYPECCVDVKPISQEKIEAERA | 4.36

Variant | protein stability index
YSEYPECCVDVKPISQEKIEKERA | 4.49
YSEYPECCVDVKPISQEKIEYERA | 3.76
YSEYPECCVDVKPISQEKIECERA | 3.96
YSEYPECCVDVKPISQEKIEVERA | 4.36
YSEYPECCVDVKPISQEKIETERA | 4.55
YSEYPECCVDVKPISQEKIEIERA | 3.42
YSEYPECCVDVKPISQEKIEQERA | 4.1
YSEYPECCVDVKPISQEKIEGERA | 3.8
YSEYPECCVDVKPISQEKIESDRA | 4.24
YSEYPECCVDVKPISQEKIESTRA | 4.17
YSEYPECCVDVKPISQEKIESQRA | 3.54
YSEYPECCVDVKPISQEKIESHRA | 4
YSEYPECCVDVKPISQEKIESCRA | 3.51
YSEYPECCVDVKPISQEKIESIRA | 3.54
YSEYPECCVDVKPISQEKIESVRA | 3.05
YSEYPECCVDVKPISQEKIESWRA | 2.88
YSEYPECCVDVKPISQEKIESRRA | 3.18
YSEYPECCVDVKPISQEKIESARA | 4.36
YSEYPECCVDVKPISQEKIESYRA | 2.58
YSEYPECCVDVKPISQEKIESNRA | 3.59
YSEYPECCVDVKPISQEKIESLRA | 2.27
YSEYPECCVDVKPISQEKIESMRA | 3.65

Variant | protein stability index
YSEYPECCVDVKPISQEKIESPRA | 3.45
YSEYPECCVDVKPISQEKIESFRA | 3.6
YSEYPECCVDVKPISQEKIESSRA | 3.56
YSEYPECCVDVKPISQEKIESKRA | 3.43
YSEYPECCVDVKPISQEKITSERA | 3.59
YSEYPECCVDVKPISQEKILSERA | 3.94
YSEYPECCVDVKPISQEKIVSERA | 2.78
YSEYPECCVDVKPISQEKIDSERA | 4.28
YSEYPECCVDVKPISQEKISSERA | 3.97
YSEYPECCVDVKPISQEKIQSERA | 3.65
YSEYPECCVDVKPISQEKIPSERA | 3.78
YSEYPECCVDVKPISQEKIWSERA | 2.04
YSEYPECCVDVKPISQEKIISERA | 3.49
YSEYPECCVDVKPISQEKIMSERA | 2.8
YSEYPECCVDVKPISQEKIRSERA | 3.56
YSEYPECCVDVKPISQEKIHSERA | 4
YSEYPECCVDVKPISQEKIKSERA | 4.02
YSEYPECCVDVKPISQEKIYSERA | 4.1
YSEYPECCVDVKPISQEKIGSERA | 3.67
YSEYPECCVDVKPISQEKINSERA | 3.6
YSEYPECCVDVKPISQEKIFSERA | 3.56
